Where two headings read alike, the source gives them in different places.
Assays:
[1] = molecular target: N-terminus of influenza B nucleoprotein (B/NP_(1-70)) (influenza B virus (strain B/Memphis/13/03)); assay: ITC; MicroCal ITC200; 16 × 2.4 µL injections of 150 µM importin-α7 into 20 µM B/NP_TAIL; 20 mM Tris-HCl pH 7.5, 150 mM NaCl; 20 °C by the methods (25 °C by the legend of Figure 6); triplicate; single-binding site model
[2] = molecular target: importin-α1 (Mus musculus) (UniProt P52293); details: cited from earlier work
[3] = molecular target: importin-α1 (Mus musculus) (UniProt P52293); details: cited from earlier work; remark: listed apart in the source

Chain of N-terminus of influenza B nucleoprotein (B/NP_(1-70)) (influenza B virus (strain B/Memphis/13/03)) (P04665 1-70): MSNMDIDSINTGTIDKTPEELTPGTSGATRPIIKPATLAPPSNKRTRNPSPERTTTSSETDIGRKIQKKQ

With “human importin-α7 (from UniProt O60684 1-536) (natural protein)” the Kd [1] was 844 nM and the stoichiometry N [1] was 1.

For “influenza A nucleoprotein NLS2 213-216 (from UniProt Q289M3)”, the Kd [2] is listed as 70000 nM.

In the case of “influenza A nucleoprotein tail NTAIL (from UniProt Q289M3)”, the Kd [3] is given as 1700 nM.

Reference: article PMC5719345
